The labels stand for the following.
B1: MYOZ1 (parent)
chain: FSDSSMDHFQKFLPTVGGQLGTAG
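Also: lentivirally expressed fusions sorted by FACS into six bins by GFP to DsRed ratio, PSI derived from sequencing read proportions per bin multiplied by bin number.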

The variants in the series derive from B1. The series can be described thus: protein stability index of a GFP-peptide fusion (GPS, HEK-293T) (PSI 1-6); higher = more stable. Particulars: c terminus: a fixed tail appended.
As to FSDSSMDHFQKFLPTVGGFLGTAG [Q19F], the protein stability index worked out at 1.42.

Turning to FSDSSMDHFQKFLPTVGGGLGTAG [Q19G], the protein stability index worked out at 2.05.

For the variant FSDSSMDHFQKFLPTVGGMLGTAG [Q19M], the protein stability index was determined as 2.03.

Regarding FSDSSMDHFQKFLPTVGGPLGTAG [Q19P], the protein stability index was found to be 2.51.

Consider FSDSSMDHFQKFLPTVGGRLGTAG [Q19R], for which the protein stability index was 3.06.

Take FSDSSMDHFQKFLPTVGGNLGTAG [Q19N]: the protein stability index was determined as 2.08.

Consider FSDSSMDHFQKFLPTVGGILGTAG [Q19I], for which the protein stability index stood at 2.01.

On to FSDSSMDHFQKFLPTVGGTLGTAG [Q19T], for which the protein stability index turned out to be 2.29.

Take FSDSSMDHFQKFLPTVGGDLGTAG [Q19D]: the protein stability index amounted to 2.58.

In the case of FSDSSMDHFQKFLPTVGGELGTAG [Q19E], the protein stability index stood at 3.12.

For FSDSSMDHFQKFLPTVGGVLGTAG [Q19V], the protein stability index was 1.89.

FSDSSMDHFQKFLPTVGGHLGTAG [Q19H]: the protein stability index stood at 1.74.

With FSDSSMDHFQKFLPTVGGLLGTAG [Q19L], the protein stability index was 2.16.

In the case of FSDSSMDHFQKFLPTVGGSLGTAG [Q19S], the protein stability index came to 2.2.

In the case of FSDSSMDHFQKFLPTVGGALGTAG [Q19A], the protein stability index amounted to 1.79.

In the case of FSDSSMDHFQKFLPTVGGKLGTAG [Q19K], the protein stability index was 2.33.

Turning to FSDSSMDHFQKFLPTVGGWLGTAG [Q19W], the protein stability index amounted to 2.35.

As to FSDSSMDHFQKFLPTVGGCLGTAG [Q19C], the protein stability index is 1.96.

In the case of FSDSSMDHFQKFLPTVGLQLGTAG [G18L], the protein stability index was found to be 2.3.

FSDSSMDHFQKFLPTVGEQLGTAG [G18E]: the protein stability index came to 3.48.

On to FSDSSMDHFQKFLPTVGNQLGTAG [G18N], for which the protein stability index amounted to 2.67.

Consider FSDSSMDHFQKFLPTVGDQLGTAG [G18D], for which the protein stability index worked out at 3.05.

FSDSSMDHFQKFLPTVGIQLGTAG [G18I]: the protein stability index turned out to be 1.52.

Take FSDSSMDHFQKFLPTVGQQLGTAG [G18Q]: the protein stability index was 2.63.

On to FSDSSMDHFQKFLPTVGMQLGTAG [G18M], for which the protein stability index was 2.49.

On to FSDSSMDHFQKFLPTVGFQLGTAG [G18F], for which the protein stability index worked out at 1.51.

Consider FSDSSMDHFQKFLPTVGAQLGTAG [G18A], for which the protein stability index came to 1.92.

On to FSDSSMDHFQKFLPTVGSQLGTAG [G18S], for which the protein stability index amounted to 2.48.

For the variant FSDSSMDHFQKFLPTVGTQLGTAG [G18T], the protein stability index was determined as 2.55.

Turning to FSDSSMDHFQKFLPTVGCQLGTAG [G18C], the protein stability index was found to be 2.04.

Turning to FSDSSMDHFQKFLPTVGPQLGTAG [G18P], the protein stability index turned out to be 2.43.

For FSDSSMDHFQKFLPTVGKQLGTAG [G18K], the protein stability index worked out at 2.

With FSDSSMDHFQKFLPTVGYQLGTAG [G18Y], the protein stability index was found to be 1.64.

Consider FSDSSMDHFQKFLPTVGVQLGTAG [G18V], for which the protein stability index is 1.94.

For the variant FSDSSMDHFQKFLPTVGWQLGTAG [G18W], the protein stability index came to 1.85.

In the case of FSDSSMDHFQKFLPTVGHQLGTAG [G18H], the protein stability index was 2.04.

In the case of FSDSSMDHFQKFLPTVGRQLGTAG [G18R], the protein stability index stood at 2.79.

FSDSSMDHFQKFLPTVLGQLGTAG [G17L]: the protein stability index is 1.56.

For the variant FSDSSMDHFQKFLPTVDGQLGTAG [G17D], the protein stability index worked out at 2.33.

For the variant FSDSSMDHFQKFLPTVQGQLGTAG [G17Q], the protein stability index was found to be 2.53.

Take FSDSSMDHFQKFLPTVVGQLGTAG [G17V]: the protein stability index was 2.38.

With FSDSSMDHFQKFLPTVYGQLGTAG [G17Y], the protein stability index was determined as 2.26.

Consider FSDSSMDHFQKFLPTVFGQLGTAG [G17F], for which the protein stability index came out at 1.85.

With FSDSSMDHFQKFLPTVWGQLGTAG [G17W], the protein stability index stood at 2.03.

For the variant FSDSSMDHFQKFLPTVHGQLGTAG [G17H], the protein stability index was 2.47.

Consider FSDSSMDHFQKFLPTVPGQLGTAG [G17P], for which the protein stability index was 2.59.

Regarding FSDSSMDHFQKFLPTVKGQLGTAG [G17K], the protein stability index was 2.02.

For FSDSSMDHFQKFLPTVNGQLGTAG [G17N], the protein stability index is 2.98.

On to FSDSSMDHFQKFLPTVIGQLGTAG [G17I], for which the protein stability index turned out to be 2.47.

FSDSSMDHFQKFLPTVTGQLGTAG [G17T]: the protein stability index was found to be 2.56.

FSDSSMDHFQKFLPTVMGQLGTAG [G17M]: the protein stability index stood at 2.06.

As to FSDSSMDHFQKFLPTVRGQLGTAG [G17R], the protein stability index came out at 1.92.

Take FSDSSMDHFQKFLPTVAGQLGTAG [G17A]: the protein stability index stood at 2.48.

As to FSDSSMDHFQKFLPTVCGQLGTAG [G17C], the protein stability index was 1.97.

As to FSDSSMDHFQKFLPTVEGQLGTAG [G17E], the protein stability index amounted to 2.98.

With FSDSSMDHFQKFLPTVSGQLGTAG [G17S], the protein stability index was found to be 2.26.

Turning to FSDSSMDHFQKFLPTIGGQLGTAG [V16I], the protein stability index was determined as 2.13.

As for FSDSSMDHFQKFLPTTGGQLGTAG [V16T], the protein stability index was 3.09.

As for FSDSSMDHFQKFLPTGGGQLGTAG [V16G], the protein stability index came to 2.98.

For FSDSSMDHFQKFLPTNGGQLGTAG [V16N], the protein stability index was found to be 2.26.

FSDSSMDHFQKFLPTLGGQLGTAG [V16L]: the protein stability index came out at 2.28.

With FSDSSMDHFQKFLPTHGGQLGTAG [V16H], the protein stability index was found to be 2.75.

For the variant FSDSSMDHFQKFLPTDGGQLGTAG [V16D], the protein stability index came out at 2.85.

For the variant FSDSSMDHFQKFLPTYGGQLGTAG [V16Y], the protein stability index amounted to 1.92.

In the case of FSDSSMDHFQKFLPTFGGQLGTAG [V16F], the protein stability index was 2.75.

For the variant FSDSSMDHFQKFLPTMGGQLGTAG [V16M], the protein stability index was determined as 2.46.

With FSDSSMDHFQKFLPTAGGQLGTAG [V16A], the protein stability index is 3.19.

For the variant FSDSSMDHFQKFLPTSGGQLGTAG [V16S], the protein stability index worked out at 2.94.

Take FSDSSMDHFQKFLPTCGGQLGTAG [V16C]: the protein stability index was 2.38.

In the case of FSDSSMDHFQKFLPTWGGQLGTAG [V16W], the protein stability index stood at 2.44.

On to FSDSSMDHFQKFLPTRGGQLGTAG [V16R], for which the protein stability index was determined as 2.46.

With FSDSSMDHFQKFLPTKGGQLGTAG [V16K], the protein stability index was 2.64.

For FSDSSMDHFQKFLPTEGGQLGTAG [V16E], the protein stability index amounted to 4.23.

On to FSDSSMDHFQKFLPTPGGQLGTAG [V16P], for which the protein stability index came to 2.56.

Turning to FSDSSMDHFQKFLPTQGGQLGTAG [V16Q], the protein stability index worked out at 3.19.

Turning to FSDSSMDHFQKFLPGVGGQLGTAG [T15G], the protein stability index turned out to be 2.46.

Regarding FSDSSMDHFQKFLPIVGGQLGTAG [T15I], the protein stability index turned out to be 2.43.

For FSDSSMDHFQKFLPPVGGQLGTAG [T15P], the protein stability index was 2.51.

FSDSSMDHFQKFLPAVGGQLGTAG [T15A]: the protein stability index came out at 2.64.

In the case of FSDSSMDHFQKFLPMVGGQLGTAG [T15M], the protein stability index was found to be 1.85.

As for FSDSSMDHFQKFLPEVGGQLGTAG [T15E], the protein stability index worked out at 2.5.

Take FSDSSMDHFQKFLPDVGGQLGTAG [T15D]: the protein stability index worked out at 2.61.

With FSDSSMDHFQKFLPHVGGQLGTAG [T15H], the protein stability index came out at 2.69.

For the variant FSDSSMDHFQKFLPKVGGQLGTAG [T15K], the protein stability index turned out to be 2.64.

Regarding FSDSSMDHFQKFLPQVGGQLGTAG [T15Q], the protein stability index amounted to 2.94.

For the variant FSDSSMDHFQKFLPYVGGQLGTAG [T15Y], the protein stability index was 1.93.

Consider FSDSSMDHFQKFLPNVGGQLGTAG [T15N], for which the protein stability index turned out to be 1.7.

With FSDSSMDHFQKFLPLVGGQLGTAG [T15L], the protein stability index is 1.9.

For the variant FSDSSMDHFQKFLPRVGGQLGTAG [T15R], the protein stability index turned out to be 2.08.

Take FSDSSMDHFQKFLPSVGGQLGTAG [T15S]: the protein stability index was determined as 2.93.

As to FSDSSMDHFQKFLPWVGGQLGTAG [T15W], the protein stability index came to 1.33.

Take FSDSSMDHFQKFLPCVGGQLGTAG [T15C]: the protein stability index worked out at 2.33.

For the variant FSDSSMDHFQKFLPVVGGQLGTAG [T15V], the protein stability index came to 2.66.

On to FSDSSMDHFQKFLPFVGGQLGTAG [T15F], for which the protein stability index was determined as 2.13.

The values are drawn from the supplement of paper PMC10567573.
